Measured values published in US20210292397A1 (LA TROBE UNIVERSITY, published 2021).

B4: Ag43a passenger domain (Ag43a^α) from UPEC strain CFT073 (other)
chain: ADIVVHPGETVNGGTLVNHDNQFVSGTANGVTVSTGLELGPDSDENTGGQWIKAGGTGRNTTVTANGRQIVQAGGTASDTVIRDGGGQSLNGLAVNTTLDNRGEQWVHGGGKAAGTIINQDGYQTIKHGGLATGTIVNTGAEGGPESENVSSGQMVGGTAESTTINKNGRQVIWSSGMARDTLIYAGGDQTVHGEAHNTRLEGGNQYVHNGGTATETLINRDGWQVIKEGGTAAHTTINQKGKLQVNAGGKASDVTQNTGGALVTSTAATVTGTNRLGAFSVVAGKADNVVLENGGRLDVLSGHTATNTRVDDGGTLDIRNGGAATTVSMGNGGVLLADSGAAVSGTRSDGKAFSIGGGQADALMLEKGSSFTLNAGDTATDTTVNGGLFTARGGTLAGTTTLNNGAILTLSGKTVNNDTLTIREGDALLQGGSLTGNGSVEKSGSGTLTVSNTTLTQKAVNLNEGTLTLNDSTVTTDVIAQRGTALKLTGSTVLNGAID
notes: also called Ag43^α; α^43a

Assays:
[1] = biological target: the molecule itself; assay: crystal structure (FIG. 12D)
[2] = biological target: the molecule itself; assay: crystal structure (FIG. 12C)
Fibrinogen = biological target: T1, Fibrinogen; assay: ELISA, absorbance at 405 nm, n=9, PBS as control
T1 construct: also called human fibrinogen
T1 alpha: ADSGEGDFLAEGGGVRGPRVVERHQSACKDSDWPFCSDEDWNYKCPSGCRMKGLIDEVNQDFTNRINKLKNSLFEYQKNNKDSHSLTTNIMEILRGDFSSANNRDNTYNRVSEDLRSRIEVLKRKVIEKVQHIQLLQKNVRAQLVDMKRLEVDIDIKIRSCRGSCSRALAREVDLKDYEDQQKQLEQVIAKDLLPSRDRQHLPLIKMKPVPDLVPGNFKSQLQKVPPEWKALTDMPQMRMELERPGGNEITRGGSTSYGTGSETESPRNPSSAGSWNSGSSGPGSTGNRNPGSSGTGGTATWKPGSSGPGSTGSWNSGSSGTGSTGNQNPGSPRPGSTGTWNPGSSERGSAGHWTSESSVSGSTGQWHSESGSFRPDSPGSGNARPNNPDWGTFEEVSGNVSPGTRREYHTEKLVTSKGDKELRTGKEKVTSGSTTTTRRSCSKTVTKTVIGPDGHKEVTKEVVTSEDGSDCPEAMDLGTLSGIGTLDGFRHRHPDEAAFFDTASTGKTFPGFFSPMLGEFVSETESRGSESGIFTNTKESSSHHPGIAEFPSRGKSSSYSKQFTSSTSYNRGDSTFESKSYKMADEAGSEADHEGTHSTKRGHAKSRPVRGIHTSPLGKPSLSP
T1 beta: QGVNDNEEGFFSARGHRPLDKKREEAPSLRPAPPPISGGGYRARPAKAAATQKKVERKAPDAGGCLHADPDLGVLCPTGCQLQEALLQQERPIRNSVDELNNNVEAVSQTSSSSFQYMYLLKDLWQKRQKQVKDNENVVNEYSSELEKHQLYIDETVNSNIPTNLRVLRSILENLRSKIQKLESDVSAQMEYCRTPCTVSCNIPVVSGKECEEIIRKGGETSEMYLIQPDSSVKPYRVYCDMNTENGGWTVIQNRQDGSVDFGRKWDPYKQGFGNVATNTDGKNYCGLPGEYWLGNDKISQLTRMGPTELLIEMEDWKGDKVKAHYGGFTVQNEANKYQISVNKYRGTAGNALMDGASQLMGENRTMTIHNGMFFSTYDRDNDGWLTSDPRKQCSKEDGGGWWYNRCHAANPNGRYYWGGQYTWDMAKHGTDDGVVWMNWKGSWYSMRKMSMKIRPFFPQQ
T1 gamma: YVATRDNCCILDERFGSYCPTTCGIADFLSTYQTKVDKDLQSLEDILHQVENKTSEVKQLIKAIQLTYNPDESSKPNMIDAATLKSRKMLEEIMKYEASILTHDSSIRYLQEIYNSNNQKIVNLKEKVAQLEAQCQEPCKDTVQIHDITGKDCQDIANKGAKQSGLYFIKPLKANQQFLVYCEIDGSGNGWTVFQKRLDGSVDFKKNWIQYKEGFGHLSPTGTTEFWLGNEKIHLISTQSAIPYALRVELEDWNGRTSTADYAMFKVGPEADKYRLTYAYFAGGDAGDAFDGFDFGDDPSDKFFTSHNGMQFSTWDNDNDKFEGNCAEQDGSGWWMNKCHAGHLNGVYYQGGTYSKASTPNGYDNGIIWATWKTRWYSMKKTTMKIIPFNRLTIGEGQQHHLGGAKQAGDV

human fibronectin = human fibronectin (human, UniProt P02751 32-2477)
human fibronectin, sequence (P02751 32-2477 limits assumed): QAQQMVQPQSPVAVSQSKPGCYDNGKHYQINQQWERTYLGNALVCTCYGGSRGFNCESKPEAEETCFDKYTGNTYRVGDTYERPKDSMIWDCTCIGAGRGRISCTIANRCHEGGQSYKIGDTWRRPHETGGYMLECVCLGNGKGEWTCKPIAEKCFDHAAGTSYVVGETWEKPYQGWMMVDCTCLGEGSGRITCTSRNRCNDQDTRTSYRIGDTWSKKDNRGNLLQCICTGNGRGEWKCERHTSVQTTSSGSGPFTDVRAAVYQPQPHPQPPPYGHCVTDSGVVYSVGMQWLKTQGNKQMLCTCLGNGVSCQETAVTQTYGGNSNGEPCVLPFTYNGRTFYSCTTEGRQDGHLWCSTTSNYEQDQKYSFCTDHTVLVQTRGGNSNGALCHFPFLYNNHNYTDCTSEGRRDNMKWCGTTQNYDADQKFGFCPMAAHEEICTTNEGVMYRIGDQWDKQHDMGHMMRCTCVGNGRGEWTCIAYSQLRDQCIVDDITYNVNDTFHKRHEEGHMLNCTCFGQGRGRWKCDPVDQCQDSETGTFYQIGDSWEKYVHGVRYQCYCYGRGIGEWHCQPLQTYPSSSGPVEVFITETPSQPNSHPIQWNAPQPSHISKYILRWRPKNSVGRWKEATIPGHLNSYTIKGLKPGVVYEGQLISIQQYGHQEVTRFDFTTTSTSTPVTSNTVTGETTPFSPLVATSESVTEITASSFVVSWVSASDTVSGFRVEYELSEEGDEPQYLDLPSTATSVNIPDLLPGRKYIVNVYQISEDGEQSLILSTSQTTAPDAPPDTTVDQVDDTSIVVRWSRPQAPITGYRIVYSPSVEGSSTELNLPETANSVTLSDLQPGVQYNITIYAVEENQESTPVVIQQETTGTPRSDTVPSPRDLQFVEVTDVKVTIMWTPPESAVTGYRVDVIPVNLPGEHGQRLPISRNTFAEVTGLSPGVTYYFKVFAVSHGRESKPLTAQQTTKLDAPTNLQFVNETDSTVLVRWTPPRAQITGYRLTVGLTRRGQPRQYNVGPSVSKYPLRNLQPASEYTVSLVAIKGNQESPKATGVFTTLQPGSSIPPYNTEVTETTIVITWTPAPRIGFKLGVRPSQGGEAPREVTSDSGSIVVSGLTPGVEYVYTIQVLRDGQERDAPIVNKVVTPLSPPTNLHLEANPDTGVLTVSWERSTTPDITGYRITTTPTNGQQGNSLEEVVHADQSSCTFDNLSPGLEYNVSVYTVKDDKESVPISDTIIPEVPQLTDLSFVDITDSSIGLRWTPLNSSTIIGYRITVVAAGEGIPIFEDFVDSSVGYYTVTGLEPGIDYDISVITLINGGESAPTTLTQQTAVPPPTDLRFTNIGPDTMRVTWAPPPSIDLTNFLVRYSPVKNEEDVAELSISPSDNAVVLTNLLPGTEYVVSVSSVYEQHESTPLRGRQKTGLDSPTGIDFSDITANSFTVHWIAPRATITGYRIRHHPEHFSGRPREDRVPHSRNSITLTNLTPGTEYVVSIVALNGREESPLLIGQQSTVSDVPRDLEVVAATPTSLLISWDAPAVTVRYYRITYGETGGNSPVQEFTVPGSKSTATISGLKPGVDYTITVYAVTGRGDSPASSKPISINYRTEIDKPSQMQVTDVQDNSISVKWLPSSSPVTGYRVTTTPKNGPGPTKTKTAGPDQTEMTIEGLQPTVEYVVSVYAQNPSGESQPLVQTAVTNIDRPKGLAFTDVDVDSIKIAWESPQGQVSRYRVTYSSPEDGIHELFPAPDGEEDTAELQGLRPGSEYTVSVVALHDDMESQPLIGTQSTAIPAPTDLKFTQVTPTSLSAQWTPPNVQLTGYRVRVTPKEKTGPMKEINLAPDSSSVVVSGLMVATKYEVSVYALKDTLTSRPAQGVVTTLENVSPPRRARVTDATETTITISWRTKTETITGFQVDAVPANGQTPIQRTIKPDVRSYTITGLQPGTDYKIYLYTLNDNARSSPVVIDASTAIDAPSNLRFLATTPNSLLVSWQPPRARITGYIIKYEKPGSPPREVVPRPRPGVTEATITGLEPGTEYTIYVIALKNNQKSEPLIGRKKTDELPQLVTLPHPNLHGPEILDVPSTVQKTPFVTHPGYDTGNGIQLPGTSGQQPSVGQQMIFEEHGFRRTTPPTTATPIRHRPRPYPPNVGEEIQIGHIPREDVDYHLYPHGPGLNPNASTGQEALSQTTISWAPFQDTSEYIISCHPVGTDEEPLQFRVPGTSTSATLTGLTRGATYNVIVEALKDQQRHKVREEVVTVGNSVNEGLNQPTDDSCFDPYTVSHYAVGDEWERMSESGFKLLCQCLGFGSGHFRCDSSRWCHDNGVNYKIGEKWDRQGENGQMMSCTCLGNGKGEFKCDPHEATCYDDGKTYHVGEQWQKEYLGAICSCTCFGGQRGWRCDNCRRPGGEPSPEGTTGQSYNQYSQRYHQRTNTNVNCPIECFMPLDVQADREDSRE

[3] = biological target: the molecule itself; assay: crystal structure (FIG. 1B)
[4] = biological target: the molecule itself; assay: crystal structure (FIG. 12A)
[5] = biological target: B4
[6] = biological target: the molecule itself; assay: crystal structure (FIG. 12B)

B1: TibA passenger domain (TibA^α) from the enterotoxigenic E. coli strain H10407 (other)
chain: YDNQTIGRGETSKSMHLSAGDTAKNTTINSGGKQYVSSGGSATSTTINIGGVQHVSSGGSATSSTINSGGHQHVSSGGSATNTTVNNGGRQTVFSGGSAMGTIINSGGDQYVISGGSATSASVTSGARQFVSSGGIVKATSVNSGGRQYVRDGGSATDTVLNNTGRQFVSSGGSAAKTTINSGGGMYLYGGSATGTSIYNGGRQYVSSGGSATNTTVYSGGRQHVYIDGNVTETTITSGGMLQVEAGGSASKVIQNSGGAVITNTSAAVSGTNDNGSFSIAGGSAVNMLLENGGYLTVFDGHQASDTMVGSDGTLDVRSGGVLYGTTTLTDKGALVGDVVTNEGNLYYLNNSTATFTGTLTGTGTLTQEGGNTRFSGLLSQDGGIFLQSGGAMTMDALQAKANVTTQSGTTLTLDNGTILTGNVAGDSTGAGDMAVKGASVWHLDGDSTVGALTLDNGTVDFRPSTTTRMTPAFQAVSLALGSLSGSGTFQMNTDIASHTGDMLNVAGNASGNFVLDIKNTGLEPVSAGAPLQVVQTGGGDAAFTLKGGKVDAGTWEYGLSKENTNWYLKADT
binding result [1]: binds

B2: Ag43b passenger domain (Ag43b^α) from uropathogenic E. coli strain CFT073 (other)
chain: ADSVVPAGETVNGGTLINHDRQFVSGTADGMTVSTGLELGADSDNNTGGQQIARGGTARNTRVTANGLQDVMAGGSTSDTVISTGGGQNLRGKASGTVLNGGDQWIHAGGRASGTVINQDGYQTIKHGGLVTGTIVNTGAEGGPDSENVSTGQMVGGIAESTTINKNGRQVIWSSGIARDTLIYTGGDQTVHGEAHNTRLEGGNQYVHKYGLALNTVINEGGWQVVKAGGTAGNTTINQNGELRVHAGGEASDVTQNTGGALVTSTAATVTGTNRLGAFSVVEGKADNVVLENGGRLDVLSGHTATRTLVDDGGTLDVRNGGTATAVSMGNGGVLLADSGAAVSGTRSDGTAFRIGGGQADALMLEKGSSFTLNAGDTATDTTVNGGLFTARGGSLAGTTTLNNGATFTLAGKTVNNDTLTIREGDALLQGGALTGNGRVEKSGSGTLTVSNTTLTQKAVNLNEGTLTLNDSTVTTDIIAHRGTALKLTGSTVLNGAIDPTNVTLTSGATWNIPDNATVQSVVDDLSHAGQIHFTSARTGKFVPTTLQVKNLNGQNGTISLRVRPDMAQNNADRLVIDGGRATGKTILNLVNAGNSGTGLATTGKGIQVVEAINGATTEEGAFVQGNMLQAGAFNYTLNRDSDESWYLRSEE
notes: also called Ag43bCFT073^α
binding result [2]: binds

B3: UpaB α-domain (α^UpaB) from UPEC strain CFT073 (other)
chain: TDSTVSTDPVTLNTEKTTLDQDVVINGDNKITAVTIETSDSDKDLNVTFGGHDITAASTVNQDFVEGVKVSGNKNVVINATDSTITAQGEGTYVRTAMVIDSTGDVVVNGGNFVAKNEKGSATGISLEATTGNNLTLNGTTINAQGNKSYSNGSTAIFAQKGNLLQGFDGDATDNITLADSNIINGGIETIVTAGNKTGIHTVNLNIKDGSVIGAANNKQTIYASASAQGAGSATQNLNLSVADSTIYSDVLALSESENSASTTTNVNMNVARSYWEGNAYTFNSGDKAGSDLDINLSDSSVWKGKVSGAGDASVSLQNGSVWNVTGSSTVDALAVKDSTVNITKATVNTGTFASQNGTLIVDASSENTLDISGKASGDLRVYSAGSLDLINEQTAFISTGKDSTLKATGTTEGGLYQYDLTQGADGNFYFVKNTHKASNASSVIQAMAAAPANVANLQADTL
notes: also called α^UPaB (native)
binding result (Fibrinogen): no binding | Kd (human fibronectin): 45.2 µM

B4
binding result [3]: binds

B5: Ag43 passenger domain (Ag43^α) from E. coli strain EDL933 (other)
chain: ADKVVQAGETVNDGTLTNHDNQIVFGTANGMTISTGLELGPDSEENTGGQWIQNGGIAGNTTVTTNGRQVVLEGGTASDTVIRDGGGQSLNGLAVNTTLNNRGEQWVHEGGVATGTIINRDGYQSVKSGGLATGTIINTGAEGGPDSDNSYTGQKVQGTAESTTINKNGRQIILFSGLARDTLIYAGGDQSVHGRALNTTLNGGYQYVHRDGLALNTVINEGGWQVVKAGGAAGNTTINQNGELRVHAGGEATAVTQNTGGALVTSTAATVIGTNRLGNFTVENGKADGVVLESGGRLDVLESHSAQNTLVDDGGTLAVSAGGKATSVTITSGGALIADSGATVEGTNASGKFSIDGTSGQASGLLLENGGSFTVNAGGQAGNTTVGHRGTLTLAAGGSLSGRTQLSKGASMVLNGDVVSTGDIVNAGEIRFDNQTTPNAALSRAVAKSNSPVTFHKLTTTNLTGQGGTINMRVRLDGSNASDQLVINGGQATGKTWLAFTNVGNSNLGVATTGQGIRVVDAQNGATTEEGAFALSRPLQAGAFNYTLNRDSDE
binding result [4]: binds

B6: Fab10C12 (Fab, V domains shown)
VH: QVQLQQPGTELVKPGASVKLSCKASGYTFTNYWMHWVKQRPGQGLEWIGNIGPSSGNTNYNENFKTKATLTVDKSSSTAYMQLSSLTSEDSAVYFCARWGSIRAMDYWGQGTSVTVSS
VL: SIVMTQTPKFLFVSVGDRVTITCKASQSVNNDVAWYQQKPGQSPKLLIYFASNRYTGVPDRFTGSGYGTDFTFTINTVQAEDLAVYFCQQDYSSPQTFGGGTKLEVTR
Kd [5]: 0.00728 µM

B7: Ag43 passenger domain (Ag43^α) from UPEC strain UTI189 (other)
chain: ADTVVQAGETVNGGTLTNHDNQIVLGTANGMTISTGLEYGPDNEANTGGQWIQNGGIANNTTVTGGGLQRVNAGGSVSDTVISAGGGQSLQGQAVNTTLNGGEQWVHEGGIATGTVINEKGWQAVKSGAMATDTVVNTGAEGGPDAENGDTGQTVYGDAVRTTINKNGRQIVAAEGTANTTVVYAGGDQTVHGHALDTTLNGGYQYVHNGGTASDTVVNSDGWQIIKEGGLADFTTVNQKGKLQVNAGGTATNVTLTQGGALVTSTAATVTGSNRLGNFTVENGNADGVVLESGGRLDVLEGHSAWKTLVDDGGTLAVSAGGKATDVTMTSGGALIADSGATVEGTNASGKFSIDGISGQASGLLLENGGSFTVNAGGLASNTTVGHRGTLTLAAGGSLSGRTQLSKGASMVLNGDVVSTGDIVNAGEIRFDNQTTPDAALSRAVAKGDSPVTFHKLTTSNLTGQGGTINMRVRLDGSNASDQLVINGGQATGKTWLAFTNVGNSNLGVATSGQGIRVVDAQNGATTEEGAFALSRPLQAGAFNYTLNRDSDE
binding result [6]: binds
